Laboratory results published in US20230302116A1.

Columns and labels:
[1] = target: nAb2 (Active Motif 91361), human anti-spike neutralizing antibody; assay: repeat Octet BLI, target on AHC sensor, spike as analyte
[2] = target: nAb3 (Absolute Antibody Ab01680-10.0), human anti-spike neutralizing antibody; assay: as above
[3] = target: nAb1 (Active Motif 91349), human anti-spike neutralizing antibody; assay: as above
[4] = target: nAb2 (Active Motif 91361), human anti-spike neutralizing antibody; assay: Octet BLI, target on AHC sensor, spike as analyte
[5] = target: nAb3 (Absolute Antibody Ab01680-10.0), human anti-spike neutralizing antibody; assay: Octet BLI, target on AHC sensor, spike as analyte
[6] = target: nAb1 (Active Motif 91349), human anti-spike neutralizing antibody; assay: Octet BLI, target on AHC sensor, spike as analyte

For “SPN-C52H8 (SARS-CoV 2 Spike protein with His Tag, Acro Biosystems) (from UniProt P0DTC2 14-1213)”, the kon [1] was 54300 M⁻¹ s⁻¹, the kon [2] was 11300 M⁻¹ s⁻¹ and the kon [3] was 18400 M⁻¹ s⁻¹. It also gave a kon [4] of 115000 M⁻¹ s⁻¹, a kon [5] of 34300 M⁻¹ s⁻¹ and a kon [6] of 75400 M⁻¹ s⁻¹.
